Reference: EP0662514A1

Experiments:
[1] = target: Trypsin (bovine) (Bovine) (UniProt P00760); test: enzyme inhibition at equilibrium, apparent Ki from fit to the tight binding inhibitor equation
[2] = target: Cathepsin G (human) (Human) (UniProt P08311); test: as above
[3] = target: Plasmin (human) (Human) (UniProt P00747); test: as above
[4] = target: Tissue kallikrein (porcine) (Porcine) (UniProt P00752); test: as above
[5] = target: Chymotrypsin (bovine) (Bovine) (UniProt P00766); test: as above
[6] = target: Trypsin (bovine) (Bovine) (UniProt P00760); test: cell-based or functional assay
[7] = target: Factor Xa (human) (Human) (UniProt P00742); test: cell-based or functional assay
[8] = target: Chymotrypsin (bovine) (Bovine) (UniProt P00766); test: cell-based or functional assay

UniProt P00760, sequence (P00760 24-246): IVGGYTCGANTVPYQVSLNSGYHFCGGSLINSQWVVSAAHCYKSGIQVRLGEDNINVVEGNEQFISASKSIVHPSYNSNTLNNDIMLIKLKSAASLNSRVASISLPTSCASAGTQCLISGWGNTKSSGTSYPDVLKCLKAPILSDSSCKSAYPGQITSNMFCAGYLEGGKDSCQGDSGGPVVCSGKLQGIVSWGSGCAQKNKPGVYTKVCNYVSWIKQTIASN
UniProt P00742, sequence (P00742 41-488 limits assumed): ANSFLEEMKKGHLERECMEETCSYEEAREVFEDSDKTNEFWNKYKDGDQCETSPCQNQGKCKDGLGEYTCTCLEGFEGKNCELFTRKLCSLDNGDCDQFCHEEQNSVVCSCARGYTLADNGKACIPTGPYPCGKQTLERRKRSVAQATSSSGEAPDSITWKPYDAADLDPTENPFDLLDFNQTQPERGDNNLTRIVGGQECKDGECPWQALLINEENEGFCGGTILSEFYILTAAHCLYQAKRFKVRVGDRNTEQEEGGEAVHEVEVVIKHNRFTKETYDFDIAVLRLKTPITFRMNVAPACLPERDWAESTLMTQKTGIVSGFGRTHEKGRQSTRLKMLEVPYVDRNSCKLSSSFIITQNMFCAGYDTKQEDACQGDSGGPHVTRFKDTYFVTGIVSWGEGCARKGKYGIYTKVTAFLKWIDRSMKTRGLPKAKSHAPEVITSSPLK
UniProt P08311, sequence (P08311 21-244 limits assumed): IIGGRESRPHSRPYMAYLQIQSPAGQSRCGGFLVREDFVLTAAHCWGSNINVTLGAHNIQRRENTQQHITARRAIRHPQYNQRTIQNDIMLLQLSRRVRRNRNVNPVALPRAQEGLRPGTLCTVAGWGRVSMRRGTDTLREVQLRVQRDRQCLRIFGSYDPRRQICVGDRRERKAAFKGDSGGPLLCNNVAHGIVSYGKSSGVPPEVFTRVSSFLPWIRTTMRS
UniProt P00752, sequence (P00752 8-246 limits assumed): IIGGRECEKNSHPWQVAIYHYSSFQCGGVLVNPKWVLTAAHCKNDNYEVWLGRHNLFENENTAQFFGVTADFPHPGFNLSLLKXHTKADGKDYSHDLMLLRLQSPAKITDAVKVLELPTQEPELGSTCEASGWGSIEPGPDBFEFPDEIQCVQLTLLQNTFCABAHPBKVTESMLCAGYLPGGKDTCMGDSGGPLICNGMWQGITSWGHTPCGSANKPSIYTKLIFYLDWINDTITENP
UniProt P00747, sequence (P00747 97-810 limits assumed): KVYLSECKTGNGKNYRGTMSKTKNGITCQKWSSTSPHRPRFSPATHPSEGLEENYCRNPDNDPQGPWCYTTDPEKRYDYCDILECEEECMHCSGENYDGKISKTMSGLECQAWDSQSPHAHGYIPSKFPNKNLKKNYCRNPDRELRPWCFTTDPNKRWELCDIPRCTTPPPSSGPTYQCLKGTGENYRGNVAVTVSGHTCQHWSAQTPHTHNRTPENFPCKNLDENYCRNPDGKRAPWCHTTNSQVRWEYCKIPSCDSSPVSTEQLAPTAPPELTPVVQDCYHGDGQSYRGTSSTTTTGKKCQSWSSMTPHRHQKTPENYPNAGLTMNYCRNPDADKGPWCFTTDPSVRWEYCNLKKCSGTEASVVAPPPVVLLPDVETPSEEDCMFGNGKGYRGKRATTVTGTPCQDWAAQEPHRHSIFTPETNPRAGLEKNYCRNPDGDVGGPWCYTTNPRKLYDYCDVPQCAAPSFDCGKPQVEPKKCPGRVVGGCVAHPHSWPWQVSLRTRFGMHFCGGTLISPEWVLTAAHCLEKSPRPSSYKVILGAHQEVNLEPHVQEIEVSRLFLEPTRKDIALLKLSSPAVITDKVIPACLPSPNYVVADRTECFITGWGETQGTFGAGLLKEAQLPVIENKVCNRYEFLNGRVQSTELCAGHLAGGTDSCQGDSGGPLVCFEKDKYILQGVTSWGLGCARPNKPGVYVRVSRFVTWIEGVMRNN

Substance: hirustasin
- Ki [1]: 7 nM
- Ki [2]: 2.9 nM
- Ki [3]: 138 nM
- Ki [4]: 13 nM
- Ki [5]: 6.4 nM
- SA [IU/mg] (specific inhibitory activity against trypsin, Mono S pool) [6]: 2.7 IU/mg
- Partial Thromboplastin Time, hirustasin at 1.3 mM; buffer 47.3 s [7]: 47.9 s
- Quick (prothrombin time), hirustasin at 1.3 mM; buffer 79 % [7]: 80%
- SA [IU/mg] (specific inhibitory activity against chymotrypsin, Mono S pool) [8]: 0.15 IU/mg
